Data as given in patent US20060183688A1 (LES LABORATORIES SERVIER, published 2006).
No end group written: not given here. fluorescein = fluorescein label at the N-terminal end

Columns and labels:
[1] = target: T1, fusion protein glutathione-S-transferase-Bcl-W (UniProt P08515 1-218 = GST; Q92843 1-171); test: fluorescence polarisation, 15 nM fluorescein-peptide, GST-Bcl-W titrated 1 nM to 5 uM
T1 construct: also called GST-Bcl-W
Method: (§1) A 15 nM solution of the peptide obtained in Example 1 labelled with fluorescein at the N-terminal end is mixed with a solution containing the fusion protein GST-Bcl-XL or GST-Bcl-W at a concentration varying from 1 nM to 5 μM in a buffer containing Na₂HPO₄ 20 mM pH 7.4, EDTA 1 mM, NaCl 50 mM, pluronic acid F-68 0.05%. The fluorescence polarisation is then measured by the En Vision apparatus (Packard Perkin-Elmer).

[2] = target: T2, fusion protein glutathione-S-transferase-Bcl-XL (UniProt P08515 1-218 = GST; Q07817 1-209); test: fluorescence polarisation, 15 nM fluorescein-peptide, GST-Bcl-XL titrated 1 nM to 5 uM
T2 construct: also called GST-Bcl-XL
Method: as §1

T2 sequence (P08515 1-218, tags or fused parts left off): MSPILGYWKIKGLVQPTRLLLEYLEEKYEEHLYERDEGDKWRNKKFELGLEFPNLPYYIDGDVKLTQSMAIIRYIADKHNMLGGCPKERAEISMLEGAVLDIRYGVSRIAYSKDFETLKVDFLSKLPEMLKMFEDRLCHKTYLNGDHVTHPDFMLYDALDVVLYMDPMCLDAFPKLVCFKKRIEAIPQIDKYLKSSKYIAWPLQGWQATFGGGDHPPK
T1 sequence (P08515 1-218, tags or fused parts left off): as above

B1: peptide obtained in Example 1 labelled with fluorescein at the N-terminal end (peptide)
peptide: fluorescein-DTRRSMVFARHLREVGDEFRSR
notes: Used at 15 nM in fluorescence polarisation; also called ID; NO.1
B1 gave a Kd [1] of 411 nM and a Kd [2] of 215 nM.
